{
  "source": "patent US20150098945A1",
  "about": "(Daiichi Sankyo, published 2015)",
  "binders": {"B1": {"name": "anti-ROBO4 mouse monoclonal antibody MAb1 (antibody, mouse IgG1, V domains shown)", "VH": "EVQLVESGGGLVKPGGSLKLSCAASGFTFSTYAMSWVRQTPEKRLEWVATISNGGTYTYYPDSVKGRFTISRDNAENTLYLQMSSLRSEDTAMYFCARLIYYDYLDYWGHGTTLTVSS", "VL": "DAVMTQTPLSLPVSLGDQASISCRSSQSLENSNGNTYLNWYFQKPGQSPQLLIYRVSNRFSGVLDRFSGSGSGTDFTLKISRVEAEDFGVYFCLQVTHVPWTFGGGTKLEIKR", "notes": "Mouse IgG1 (gamma1), kappa light chain, purified from hybridoma supernatant; also called parent antibody MAb1"}},
  "target": "T1, human ROBO2 (pCI-hROBO2-transfected HEK293 cells) (human)",
  "T1 chain": "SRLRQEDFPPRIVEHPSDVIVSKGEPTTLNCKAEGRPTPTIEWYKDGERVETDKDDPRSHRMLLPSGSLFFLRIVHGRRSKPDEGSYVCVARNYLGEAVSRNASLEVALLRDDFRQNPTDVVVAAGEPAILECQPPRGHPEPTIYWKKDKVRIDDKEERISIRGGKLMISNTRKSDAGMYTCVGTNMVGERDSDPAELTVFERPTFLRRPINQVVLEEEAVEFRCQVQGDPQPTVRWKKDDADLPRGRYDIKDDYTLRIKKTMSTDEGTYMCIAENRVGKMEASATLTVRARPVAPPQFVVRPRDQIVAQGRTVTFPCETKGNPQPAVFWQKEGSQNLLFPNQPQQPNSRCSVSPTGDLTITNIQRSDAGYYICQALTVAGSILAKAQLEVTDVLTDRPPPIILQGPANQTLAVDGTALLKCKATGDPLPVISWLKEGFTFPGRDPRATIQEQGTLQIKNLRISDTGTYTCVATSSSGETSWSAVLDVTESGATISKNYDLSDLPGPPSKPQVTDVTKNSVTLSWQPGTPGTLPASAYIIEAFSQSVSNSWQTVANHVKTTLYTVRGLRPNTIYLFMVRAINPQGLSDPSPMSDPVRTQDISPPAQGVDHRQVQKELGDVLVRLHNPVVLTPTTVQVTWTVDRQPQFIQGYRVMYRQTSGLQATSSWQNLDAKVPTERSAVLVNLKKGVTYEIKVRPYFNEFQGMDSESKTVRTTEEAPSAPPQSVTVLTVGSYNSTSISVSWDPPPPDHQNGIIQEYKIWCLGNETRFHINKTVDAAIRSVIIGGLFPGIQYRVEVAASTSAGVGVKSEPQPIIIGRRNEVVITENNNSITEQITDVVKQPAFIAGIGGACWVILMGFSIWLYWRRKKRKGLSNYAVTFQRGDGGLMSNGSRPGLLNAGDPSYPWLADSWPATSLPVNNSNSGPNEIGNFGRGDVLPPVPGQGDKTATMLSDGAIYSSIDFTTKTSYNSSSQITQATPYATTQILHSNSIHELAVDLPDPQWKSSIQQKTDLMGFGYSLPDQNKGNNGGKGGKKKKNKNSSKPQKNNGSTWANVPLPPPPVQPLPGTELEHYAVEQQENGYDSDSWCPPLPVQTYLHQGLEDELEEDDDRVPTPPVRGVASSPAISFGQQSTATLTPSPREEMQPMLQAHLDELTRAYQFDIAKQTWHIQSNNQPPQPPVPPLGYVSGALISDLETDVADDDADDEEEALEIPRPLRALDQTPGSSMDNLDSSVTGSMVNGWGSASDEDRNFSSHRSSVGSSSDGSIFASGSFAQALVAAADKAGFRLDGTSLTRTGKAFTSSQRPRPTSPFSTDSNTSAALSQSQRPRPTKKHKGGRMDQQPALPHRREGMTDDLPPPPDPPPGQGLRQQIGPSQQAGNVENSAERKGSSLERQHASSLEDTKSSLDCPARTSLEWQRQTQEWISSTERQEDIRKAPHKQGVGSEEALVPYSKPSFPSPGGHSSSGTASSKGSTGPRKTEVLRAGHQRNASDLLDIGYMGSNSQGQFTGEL",
  "assay": "flow cytometry, HEK293 cells transfected with pCI-hROBO2, anti-mouse IgG FITC; control histogram IgG",
  "protocol": "HEK293 cells were inoculated at a concentration of 1.2×10⁶ cells/dish or 1.5×10⁶ cells/dish to a 60-mm dish (manufactured by Corning Inc.) and cultured overnight in a DMEM medium containing 10% FBS at 37° C. under 5% CO₂ conditions. On the next day, the HEK293 cells were transfected with pCI-hROBO4, pCI-FLAG-hROBO1, pCI-hROBO2, or pCI-hROBO3 using FuGENE6 Transfection Reagent and further cultured overnight at 37° C. under 5% CO₂ conditions. On the next day, the expression vector-transfected cells were treated with TrypLE Express (manufactured by Life Technologies Corp.), washed with PBS containing 5% FBS, and then suspended in PBS containing 5% FBS. The obtained cell suspension was used in flow cytometry analysis.\nEach cell suspension prepared in 4)-4-1 was centrifuged, and the supernatant was removed. […] Data was analyzed using Flowjo. The histogram of FITC fluorescence intensity was prepared. The antibody was determined to bind in a specific manner when the histogram of MAb1 was shifted to a stronger fluorescence intensity region compared with the histogram of the negative control Mouse IgG1 or Mouse IgG2a. […]",
  "data": [
    {"binder": "B1", "values": [
      {"measurement": "binding result", "result": "no binding (tested: 10 µg/mL)"}
    ]}
  ]
}
